± gives the uncertainty stated by the source.
Assay: protein stability index of a GFP-peptide fusion (yeast GPS) (PSI 1-4); higher = more stable; sorted into four equal gates, so the index is relative within each strain
How it was run: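 Tiled 17-residue peptides from yeast proteins were fused downstream of GFP on a plasmid that also expresses Cherry, and the pooled library was carried in yeast. Mid-log cultures grown in leucine-free medium were sorted into four equal gates by GFP/Cherry fluorescence ratio. Plasmids from each gate were PCR-amplified and Illumina-sequenced, and reads were assigned to strains by barcodes. Each peptide's protein stability index is the sum, over gates, of the gate's read frequency multiplied by its gate number.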

| Sequence | protein stability index (doa10∆) | protein stability index (pdr5∆) | protein stability index (san1∆) | protein stability index (ubr1∆) |
| --- | --- | --- | --- | --- |
| YQMHIKTSKDIAVLRSK [FAS1] | 2.25 ± 0.051 | 2.14 ± 0.062 | 2.3 ± 0.062 | 2.46 ± 0.072 |
| IFTCQIMNLITNEPCGA [RPN4] | 2.07 ± 0.087 | 2.61 ± 0.18 | 2.36 ± 0.21 | – |
| VFKATSSTDEESWFKAL [FAS1] | 2.92 ± 0.13 | 3 ± 0.15 | 2.75 ± 0.082 | 2.88 ± 0.084 |
| LNLDEIVACELILSGDT [YJL039C/NUP192] | 2.64 ± 0.08 | 2.7 ± 0.084 | 3.05 ± 0.096 | 2.6 ± 0.12 |
| KALQSIGQLIGEVMKEL [RPT4] | 3.35 ± 0.092 | 3.17 ± 0.15 | 3.39 ± 0.095 | 3.36 ± 0.058 |
| FMKSVIRSREAFSYEQA [DIS3] | 2.28 ± 0.11 | 2.73 ± 0.082 | 2 ± 0.13 | 2.71 ± 0.12 |
| PRVIEPVYTAQWSATWI [PRP8] | 1.8 ± 0.072 | 2.17 ± 0.054 | 2.08 ± 0.07 | 2.13 ± 0.046 |
| VSFNSKQNEQLHVEQLS [SMC3] | 2.27 ± 0.071 | 2.72 ± 0.087 | 2.47 ± 0.1 | 2.85 ± 0.066 |
| LNPNEYFSVTTARRNVS [SWI3] | 1.64 ± 0.072 | 1.67 ± 0.082 | 1.85 ± 0.14 | 2.19 ± 0.076 |
| VLTGGYLDQHKRTRLES [SMC3] | 2.26 ± 0.17 | 2.04 ± 0.23 | 1.19 ± 0.16 | 2.62 ± 0.26 |
| YEYAEHDLLQIIHFHSH [SSN3] | 2.31 ± 0.062 | 2.59 ± 0.054 | 2.5 ± 0.045 | 2.63 ± 0.04 |
| ILSQQFDKIIKIREDHI [SRB8] | 2.62 ± 0.066 | 3.05 ± 0.07 | 3.04 ± 0.052 | 2.84 ± 0.054 |
| PSTGFKFSLPFEQKGSQ [YLR335W/NUP2] | 2.99 ± 0.11 | 2.94 ± 0.088 | 3.07 ± 0.087 | 2.96 ± 0.096 |
| GTLKVILNLYSSAHLIR [YML103C/NUP188] | 2.07 ± 0.15 | – | – | – |
| QFNATINPESREIVMPA [ITC1] | 1.87 ± 0.15 | 1.86 ± 0.17 | 1.7 ± 0.13 | 1.14 ± 0.19 |
| YACISSRPGQSGRCDGY [RPS8A] | 3.02 ± 0.1 | 3.21 ± 0.12 | 3.35 ± 0.097 | 3.28 ± 0.046 |
| LLHNHLKSIESLKLENS [SMC2] | 1.4 ± 0.1 | 1.82 ± 0.11 | 1.24 ± 0.28 | 2.52 ± 0.21 |
| ISLSVHTLALEFVNGGK [RRP46] | 2.49 ± 0.1 | 2.79 ± 0.068 | 2.06 ± 0.08 | 2.66 ± 0.079 |
| IWKESLIELSGGQRSLI [SMC2] | 1.75 ± 0.14 | 2.12 ± 0.091 | 1.98 ± 0.16 | 1.56 ± 0.12 |
| IFNSGKMIILDKLLKRL [ISW2] | 2.17 ± 0.077 | 1.93 ± 0.055 | 1.55 ± 0.1 | 2.17 ± 0.046 |
| YMEKGTQLDDLQHELMI [YML103C/NUP188] | 2.62 ± 0.058 | 2.31 ± 0.059 | 2.19 ± 0.063 | 2.25 ± 0.035 |
| YGNRAEQFLETDSDFAK [SRP68] | 3.15 ± 0.12 | 2.99 ± 0.08 | 3.26 ± 0.083 | 3.23 ± 0.065 |
| LEEKILAKKTHKQELQD [SMC4] | 2.95 ± 0.093 | 3.21 ± 0.074 | 2.88 ± 0.072 | 2.85 ± 0.073 |
| VTEANIIKLVEGLANDP [RPS12] | 2.51 ± 0.12 | 2.76 ± 0.073 | 2.67 ± 0.085 | 2.73 ± 0.073 |
| EVDYEDKDNPVDSRNET [SRB4] | 3.46 ± 0.19 | 2.99 ± 0.17 | 3.47 ± 0.12 | 3.33 ± 0.25 |
| LRLGRGINPNTFRIFHN [YDL088C/ASM4] | 2.39 ± 0.062 | 1.88 ± 0.071 | 1.86 ± 0.11 | 1.65 ± 0.038 |
| YLHNVELGEKKNEKLKF [ISW2] | 2.84 ± 0.083 | 2.68 ± 0.094 | 2.89 ± 0.096 | 2.87 ± 0.1 |

| Sequence | protein stability index (doa10∆) | protein stability index (pdr5∆) | protein stability index (san1∆) | protein stability index (ubr1∆) |
| --- | --- | --- | --- | --- |
| YVNDVAIYNNPTRIRTK [RRI2] | 1.81 ± 0.052 | 2.54 ± 0.032 | 2.19 ± 0.058 | 2.4 ± 0.04 |
| VLVVRGSKKGQEGKISS [RPL26A] | 3.54 ± 0.085 | 3.19 ± 0.099 | 3.06 ± 0.068 | 3.44 ± 0.084 |
| DQTFPINCNKETIENVK [ECM29] | 3.17 ± 0.082 | 2.93 ± 0.099 | 3.08 ± 0.07 | 3.4 ± 0.088 |
| TGEAQVDNSPTTESNSR [YLR335W/NUP2] | 2.98 ± 0.086 | 2.83 ± 0.09 | 2.59 ± 0.13 | 3.06 ± 0.092 |
| EMINEQKLPQYIIQGSN [RGR1] | – | 2.96 ± 0.27 | – | 3.15 ± 0.2 |
| KLNQKYDIVKFLTVSKL [GRR1] | 1.76 ± 0.037 | 1.99 ± 0.03 | 2.06 ± 0.052 | 2.04 ± 0.026 |
| IIKKDEVVKRYLKMRQD [PUP3] | 3.66 ± 0.2 | – | – | – |
| EVYMRYRNFMVNSYRLN [SWI3] | 2.19 ± 0.062 | 1.62 ± 0.06 | 1.46 ± 0.099 | 1.44 ± 0.097 |
| SLGFNEVFSRPEWMILT [RPO21] | 1.5 ± 0.11 | 1.74 ± 0.1 | 1.62 ± 0.12 | 1.21 ± 0.066 |
| QINNVHLIPNEIKGASE [RPN4] | 2.84 ± 0.064 | 2.75 ± 0.059 | 2.42 ± 0.06 | 2.76 ± 0.052 |
| VDFQNDLKDILEKVVPL [BRR2] | 3.17 ± 0.18 | 2.88 ± 0.13 | 2.9 ± 0.15 | 2.69 ± 0.066 |
| NILNMSMNNDFQQQQQQ [PGD1] | 2.68 ± 0.078 | 3.04 ± 0.084 | 2.83 ± 0.066 | 2.67 ± 0.071 |
| ANEQLKLFNRIVERETN [CSN12] | 2.5 ± 0.12 | 2.73 ± 0.16 | 1.71 ± 0.24 | 2.81 ± 0.15 |
| ISAKDMGQGLCNNINKG [BRR2] | 3.13 ± 0.14 | 3.25 ± 0.22 | 3.12 ± 0.12 | 3.26 ± 0.24 |
| AISTGNWSLKRFKMERA [RET1] | 1.94 ± 0.097 | 1.93 ± 0.11 | 2.44 ± 0.11 | 1.68 ± 0.077 |
| NISGEFFRNKLKYHDFL [RPL16B] | 2.35 ± 0.063 | 2.18 ± 0.068 | 2.22 ± 0.067 | 1.79 ± 0.044 |
| SESVGAFLSFLAYRNYW [YJL039C/NUP192] | 1.69 ± 0.073 | 1.97 ± 0.11 | 1.72 ± 0.12 | 1.84 ± 0.084 |
| LTVIEKLDSKKILPTDI [SRP68] | 2.71 ± 0.13 | 3 ± 0.12 | 2.95 ± 0.1 | 2.71 ± 0.061 |
| LKFVKVRVRTTKIPQIG [RPB2] | 2.51 ± 0.073 | 2.55 ± 0.079 | 2.85 ± 0.13 | 2.52 ± 0.04 |
| PKYAKQKDKSDTYKRFK [ISW2] | 3.12 ± 0.084 | 3.1 ± 0.1 | 3.13 ± 0.11 | 3.23 ± 0.079 |
| FGRTLASVTKEILGTAQ [RPL12A] | 1.46 ± 0.1 | 1.53 ± 0.047 | 1.38 ± 0.084 | 1.62 ± 0.078 |
| HRSGKIVVQLNGRLNKC [RPS22A] | – | 3.52 ± 0.23 | 2.98 ± 0.13 | 3.36 ± 0.13 |
| SEKQNDEEAAGASTVMK [PRP8] | 3.36 ± 0.15 | 3.18 ± 0.093 | 3.38 ± 0.11 | 3.43 ± 0.11 |
| KKGKSSDKDATTDGKND [RPN1] | – | 3.28 ± 0.2 | 3.44 ± 0.16 | 3.52 ± 0.2 |
| AIVLPMKRADKFKDMGI [RPT5] | 2.39 ± 0.096 | 3.11 ± 0.24 | 3.09 ± 0.17 | 3.09 ± 0.16 |
| DTSGLKISNSEFFNPEI [SIN4] | 3.21 ± 0.096 | 3.44 ± 0.12 | 3.1 ± 0.058 | 3.29 ± 0.074 |

Reference: the supplement of paper PMC9732359
